Laboratory results from patent publication US20060239990.

Molecular target: GST-Stat3 fusion protein (UniProt P42227)
Sequence (P42227 whole entry, the tested form may be a part): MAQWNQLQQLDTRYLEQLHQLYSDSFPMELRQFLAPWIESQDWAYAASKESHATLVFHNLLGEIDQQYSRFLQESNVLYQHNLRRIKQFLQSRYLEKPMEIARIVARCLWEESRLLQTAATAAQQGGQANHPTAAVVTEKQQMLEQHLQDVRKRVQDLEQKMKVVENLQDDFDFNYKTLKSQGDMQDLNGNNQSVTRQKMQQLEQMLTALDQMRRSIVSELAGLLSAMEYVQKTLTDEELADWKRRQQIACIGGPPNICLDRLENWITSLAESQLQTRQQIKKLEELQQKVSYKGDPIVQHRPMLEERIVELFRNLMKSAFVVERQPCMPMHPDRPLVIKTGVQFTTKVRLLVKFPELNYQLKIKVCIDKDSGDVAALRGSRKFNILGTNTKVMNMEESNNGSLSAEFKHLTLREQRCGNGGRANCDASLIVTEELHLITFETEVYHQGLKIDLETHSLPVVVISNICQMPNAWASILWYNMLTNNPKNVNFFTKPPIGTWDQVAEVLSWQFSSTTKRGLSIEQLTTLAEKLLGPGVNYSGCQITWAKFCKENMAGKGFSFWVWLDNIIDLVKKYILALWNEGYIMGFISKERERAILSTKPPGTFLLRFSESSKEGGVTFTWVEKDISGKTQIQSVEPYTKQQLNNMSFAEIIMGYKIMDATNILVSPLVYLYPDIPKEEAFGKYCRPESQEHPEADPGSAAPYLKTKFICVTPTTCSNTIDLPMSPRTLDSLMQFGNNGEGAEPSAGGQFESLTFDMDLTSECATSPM

## mutated mouse PRMT2-Flag lacking functional Ado-Met domain (alanine for 145-GCGTG-149)
  in vitro methylation with [3H]-AdoMet: transfection of neither vector alone nor mutated PRMT2-Flag cDNA induced methylation of GST-Stat3 (FIG. 20A, lanes 4 and 5)
